Measurements reported in the supplement of paper PMC6757056.
± gives the standard deviation of the averaged measurements.

B1: library; a variant is named by its letters at N, in order (parent)
chain: GCUGUCACCGGUGCUUGGUACGUUAUAUUCAGCCGGUCUGAUGAGUCUNNNNNNAGACGAAACAGC

Legend:
[1] = variants of: B1; assay: FACS-Seq fitted mean relative fluorescence mCherry/BFP without ligand (log10 relative fluorescence); HEK293T overexpressing SLC46A1; higher = higher reporter protein expression; conditions: without (6R,S)-folinic acid; ligand present: no
How it was run: (§1)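 Genomic DNA from 6 mCherry/BFP sort bins was PCR-amplified, barcoded and sequenced on MiSeq. The sorted cells were enriched HEK293T libraries, lentivirally transduced with a ribozyme-switch mCherry reporter and an EF1α-BFP marker, incubated with or without ligand for 48 h. Fluorescence derives from a normal fit to the bin counts. The fit was on log10(mCherry/BFP), and means were scaled to five spiked-in control ribozymes.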

[2] = variants of: B1; assay: normalized RNA/DNA level without ligand (relative to sTRSVctl = 100) (log10 (% of sTRSVctl)); HEK293T overexpressing SLC46A1; higher = less ribozyme self-cleavage, higher mRNA level; conditions: without (6R,S)-folinic acid; ligand present: no
How it was run: (§2)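 Library plasmids carrying ribozyme switches linked to mCherry, or to eGFP in some ligand experiments, were transfected into HEK293T at 4 µg per 6-well well, with any ligand added 1 h earlier. Seventy-two hours on, total RNA was extracted with EDTA and reverse-transcribed, amplified, barcoded and sequenced. RNA level was RNA over DNA reads normalized to a spiked-in non-cleaving sequence or to the top sequences, then scaled and log-transformed. The top set was 25 sequences, the transform was ×100 and log10, and sequences needed ≥100 DNA reads.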

[3] = variants of: B1; assay: FACS-Seq fitted mean relative fluorescence mCherry/BFP with ligand (log10 relative fluorescence); HEK293T overexpressing SLC46A1; ligand concentration (+) FACS-Seq: 6 mM; higher = higher reporter protein expression; conditions: with (6R,S)-folinic acid; ligand present: yes
How it was run: as §1

[4] = variants of: B1; assay: normalized RNA/DNA level with ligand (relative to sTRSVctl = 100) (log10 (% of sTRSVctl)); HEK293T overexpressing SLC46A1; ligand concentration (+) RNA-Seq: 6 mM; higher = less ribozyme self-cleavage, higher mRNA level; conditions: with (6R,S)-folinic acid; ligand present: yes
How it was run: as §2

Row | Variant | FACS-Seq fitted mean (log10) [1] | normalized RNA/DNA level without ligand (log10) [2] | FACS-Seq fitted mean (log10) [3] | normalized RNA/DNA level with ligand (log10) [4]
1 | CUUGAU | 0.145 ± 0.1 | 1.97 ± 0.018 | 0.602 ± 0.33 | 2.008 ± 0.018
2 | CAAAAG |  | 1.903 ± 0.0085 |  | 1.945 ± 0.015
3 | CAAAAA |  | 1.962 ± 0.007 |  | 1.96 ± 0.025
4 | AUUCAG | 0.281 ± 0.045 | 1.962 ± 0.0047 | 0.431 ± 0.097 | 2.009 ± 0.018
5 | AUUGGA | 0.168 ± 0.094 | 1.941 ± 0.0048 | 0.119 ± 0.29 | 2.01 ± 0.038
6 | GUUGUA | 0.281 ± 0.083 | 1.962 ± 0.011 | 0.415 ± 0.15 | 1.97 ± 0.05
7 | GUUGUG | 0.391 ± 0.14 | 1.879 ± 0.0056 | 0.458 ± 0.072 | 2.01 ± 0.023
8 | GUGUAA | 0.21 ± 0.21 | 1.957 ± 0.0042 | 0.383 ± 0.18 | 2 ± 0.041
9 | GUGUAC | -0.753 ± 0.24 | 1.942 ± 0.0035 | -0.684 ± 0.34 | 2.005 ± 0.0037
10 | GUGUAG | 0.435 ± 0.018 | 1.899 ± 0.0022 | 0.514 ± 0.18 | 1.998 ± 0.016
11 | UUUUGA | 0.586 ± 0.1 | 1.976 ± 0.013 | 0.704 ± 0.022 | 2.02 ± 0.036
12 | UUUUGG | 0.169 ± 0.054 | 1.8812 ± 0.0015 | 0.473 ± 0.2 | 2.01 ± 0.028
13 | GUGGCA | 0.0901 ± 0.037 | 2.011 ± 0.0084 | 0.458 ± 0.2 | 2.02 ± 0.042
14 | GUGGCC | 0.354 ± 0.0094 | 2.02 ± 0.029 | 0.72 ± 0.12 | 2.05 ± 0.023
15 | CUGGCU | 0.556 ± 0.0076 | 2.033 ± 0.016 | 0.55 ± 0.13 | 2.02 ± 0.036
16 | GUUUAG | 0.516 ± 0.048 | 1.965 ± 0.0083 | 0.495 ± 0.068 | 2.02 ± 0.033
17 | GUUGCG | 0.325 ± 0.01 | 1.91 ± 0.02 | 0.566 ± 0.19 | 2.02 ± 0.038
18 | GUUGCU | 0.299 ± 0.016 | 2.02 ± 0.023 | 0.44 ± 0.32 | 2.008 ± 0.018
19 | UUGAUG | 0.136 ± 0.018 | 1.797 ± 0.0018 | 0.436 ± 0.22 | 1.99 ± 0.046
20 | AUGGCG | 0.284 ± 0.024 | 1.91 ± 0.022 | 0.359 ± 0.058 | 2.04 ± 0.031
21 | CUUAUU | 0.473 ± 0.12 | 1.985 ± 0.0074 | 0.678 ± 0.072 | 2.01 ± 0.024
22 | AUUGAA | 0.561 ± 0.054 | 1.97 ± 0.01 | 0.718 ± 0.079 | 2 ± 0.014
23 | AUUGAG | 0.4944 ± 0.0016 | 1.715 ± 0.01 | 0.969 ± 0.14 | 1.946 ± 0.012
24 | UUGCUA | 0.353 ± 0.027 | 2.002 ± 0.0079 | 0.377 ± 0.051 | 2.04 ± 0.026
25 | UUUAUG | 0.307 ± 0.0054 | 1.79 ± 0.024 | 0.315 ± 0.17 | 1.96 ± 0.041

Row | Variant | FACS-Seq fitted mean (log10) [1] | normalized RNA/DNA level without ligand (log10) [2] | FACS-Seq fitted mean (log10) [3] | normalized RNA/DNA level with ligand (log10) [4]
26 | CUUUUU | 0.61 ± 0.16 | 1.991 ± 0.013 | 0.733 ± 0.016 | 2.021 ± 0.018
27 | CUUUUC | 0.721 ± 0.2 | 2.06 ± 0.023 | 0.481 ± 0.091 | 2.02 ± 0.036
28 | UUGUUA | 0.514 ± 0.052 | 2.03 ± 0.014 | 0.793 ± 0.16 | 2.07 ± 0.031
29 | GUUCAC | 0.0291 ± 0.011 | 2.041 ± 0.016 | -0.0744 ± 0.017 | 2.032 ± 0.014
30 | GUUCAA | 0.497 ± 0.083 | 1.98 ± 0.023 | 0.591 ± 0.17 | 1.98 ± 0.023
31 | GAAAAA |  | 1.986 ± 0.0038 |  | 2.01 ± 0.038
32 | GUGACC | 0.7143 ± 0.0036 | 2.03 ± 0.0039 | 0.585 ± 0.22 | 2.02 ± 0.028
33 | GUGACA | 0.277 ± 0.2 | 1.989 ± 0.003 | 0.446 ± 0.1 | 1.99 ± 0.05
34 | UUUCAG | 0.263 ± 0.0041 | 1.916 ± 0.013 | -0.0672 ± 0.0029 | 2.011 ± 0.02
35 | AUUGCG | 0.231 ± 0.12 | 1.8333 ± 0.00083 | 0.245 ± 0.22 | 2 ± 0.04
36 | GUGAAU | 0.0592 ± 0.055 | 1.944 ± 0.0083 | 0.217 ± 0.099 | 2 ± 0.043
37 | AUUUUA | 0.5131 ± 0.0034 | 1.969 ± 0.0082 | 0.318 ± 0.1 | 2.01 ± 0.023
38 | AUUUUG | 0.462 ± 0.029 | 1.927 ± 0.014 | 0.552 ± 0.039 | 1.99 ± 0.05
39 | AUUUUC | 0.447 ± 0.23 | 2.031 ± 0.0051 | 0.549 ± 0.048 | 2 ± 0.021
40 | GUGGGA | -0.679 ± 0.016 | 2.018 ± 0.0036 | -0.94 ± 0.38 | 2.03 ± 0.025
41 | GUGGGC | 0.414 ± 0.04 | 1.788 ± 0.0052 | 0.738 ± 0.17 | 1.98 ± 0.024
42 | GUGAUA | 0.573 ± 0.073 | 1.97 ± 0.017 | 0.371 ± 0.036 | 2 ± 0.022
43 | AUUGUG | 0.281 ± 0.041 | 1.8 ± 0.0029 | 0.524 ± 0.1 | 1.99 ± 0.035
44 | GUUUGU | 0.326 ± 0.024 | 2.03 ± 0.034 | 0.672 ± 0.18 | 2.034 ± 0.014
45 | GUGUCA | 0.425 ± 0.12 | 2.008 ± 0.0044 | 0.477 ± 0.009 | 2.03 ± 0.033
46 | AUGAGA | 0.466 ± 0.025 | 1.944 ± 0.014 | 0.537 ± 0.077 | 2.014 ± 0.016
47 | AUGAGU | 0.287 ± 0.0094 | 1.788 ± 0.017 | 0.639 ± 0.18 | 1.97 ± 0.04
48 | AUGAGC | -0.023 ± 0.066 | 1.998 ± 0.0094 | 0.192 ± 0.3 | 2.03 ± 0.028
49 | CUGCCC | 0.494 ± 0.029 | 2.07 ± 0.041 | 0.403 ± 0.0067 | 2.06 ± 0.021
50 | AUGGUU | 0.245 ± 0.097 | 1.98 ± 0.026 | 0.136 ± 0.14 | 2.01 ± 0.027

Row | Variant | FACS-Seq fitted mean (log10) [1] | normalized RNA/DNA level without ligand (log10) [2] | FACS-Seq fitted mean (log10) [3] | normalized RNA/DNA level with ligand (log10) [4]
51 | AUGGUA | 0.132 ± 0.069 | 1.91 ± 0.0083 | 0.165 ± 0.17 | 1.98 ± 0.038
52 | AUGGUG | 0.433 ± 0.026 | 1.786 ± 0.011 | 0.485 ± 0.12 | 2.01 ± 0.024
53 | GUUCUA | 0.333 ± 0.067 | 2.03 ± 0.0066 | 0.412 ± 0.031 | 2.035 ± 0.0031
54 | UUGAAG | 0.386 ± 0.00085 | 1.75 ± 0.026 | 0.374 ± 0.21 | 1.981 ± 0.0095
55 | AUGGGG | 0.139 ± 0.026 | 1.841 ± 0.0025 | 0.258 ± 0.36 | 2.03 ± 0.062
56 | AUGGGA | 0.263 ± 0.012 | 1.925 ± 0.015 | 0.269 ± 0.049 | 2.01 ± 0.03
57 | UUUGAU | 0.135 ± 0.022 | 1.9541 ± 0.0016 | 0.206 ± 0.34 | 1.99 ± 0.065
58 | UUUGAA | 0.0652 ± 0.029 | 1.918 ± 0.0086 | 0.135 ± 0.075 | 1.98 ± 0.042
59 | UUUGAG | -0.104 ± 0.12 | 1.735 ± 0.0097 | 0.41 ± 0.25 | 1.98 ± 0.033
60 | GUUACC | 0.497 ± 0.022 | 2.047 ± 0.013 | 0.281 ± 0.23 | 2.03 ± 0.026
61 | AUGACU | 0.261 ± 0.032 | 2.01 ± 0.025 | 0.313 ± 0.27 | 2.02 ± 0.03
62 | AUGACG | 0.318 ± 0.062 | 1.941 ± 0.0037 | 0.394 ± 0.14 | 2.02 ± 0.022
63 | AUGACA | 0.187 ± 0.069 | 1.987 ± 0.0094 | 0.323 ± 0.037 | 2 ± 0.032
64 | GUGCCG | 0.617 ± 0.24 | 2.0438 ± 0.0018 | 0.702 ± 0.27 | 2.04 ± 0.052
65 | CUGGAA | 0.184 ± 0.035 | 1.9175 ± 0.00021 | 0.243 ± 0.021 | 1.97 ± 0.028
66 | CUGGAU | 0.302 ± 0.025 | 1.966 ± 0.018 | 0.179 ± 0.028 | 2.02 ± 0.022
67 | GAAACC |  | 2.035 ± 0.013 |  | 2.03 ± 0.033
68 | GAAACA |  | 2.017 ± 0.018 |  | 2.04 ± 0.026
69 | CUGCAG | 0.542 ± 0.11 | 1.91 ± 0.021 | 0.679 ± 0.4 | 1.977 ± 0.0074
70 | GUGCGA | 0.238 ± 0.11 | 1.999 ± 0.014 | 0.278 ± 0.38 | 2.02 ± 0.044
71 | GUGCGU | 0.436 ± 0.15 | 1.9915 ± 0.0017 | 0.582 ± 0.16 | 2.008 ± 0.017
72 | UUGCAG | 0.439 ± 0.019 | 1.886 ± 0.0031 | 0.636 ± 0.033 | 2 ± 0.042
73 | CAAACA |  | 1.979 ± 0.014 |  | 2 ± 0.044
74 | UAAACA |  | 1.96 ± 0.02 |  | 1.994 ± 0.016
75 | AUGUGG | 0.0386 ± 0.035 | 1.844 ± 0.0091 | 0.311 ± 0.041 | 2.01 ± 0.046
